# Assay results: patent US12577536B2, “Method for isolating ureteric bud tip cells” (KYOTO UNIVERSITY, priority 2019, dated 2026)
# Test system: tip cell colonies
# Assay: Reconstitution of iUB organoids from tip cell colonies
# Type: cell-based, human
# Settings: organoid medium with Wnt3a conditioned medium and R-spondin 1 in place of CHIR99021
# Protocol: Hydrogel was dissolved with Cell Recovery Solution (BD Biosciences) for 1 h at 4° C. to detach day 7 tip cell colonies. After washing with additional Cell Recovery Solution, the tip cell colonies were centrifuged at 500 g for 5 min at room temperature. Essential 6 medium containing 0.1 μM LDN193189, 100 ng/ml GDNF, 0.1 μM TTNPB, 200 ng/ml FGF8, 1 μM CHIR99021 or 10% Afamin/Wnt3a conditioned medium (MBL), 200 ng/ml R-spondin 1 (R&D systems), 50 ng/ml EGF, 200 ng/ml FGF1 and 10% Matrigel was applied to the tube including tip cell colonies. After pipetting gently with a wide-mouth micropipette (BMBio) not to break colonies, the suspension was distributed to low-attachment 35 mm dish (Sumitomo Bakelite) at 2 mL/dish. The medium was refreshed every 2 days. On day 4, each colony was placed onto one well of low-attachment 96-well plates in the same medium. After an additional 6 days, the tip region was separated from the reconstituted iUB organoid and treated with the same medium for 35 days.
molecule,measurement,value
"R-spondin 1: Wnt signaling activator (R&D systems) (protein, UniProt Q2MKA7 21-263, looked up) R-spondin-1: SRGIKGKRQRRISAEGSQACAKGCELCSEVNGCLKCSPKLFILLERNDIRQVGVCLPSCPPGYFDARNPDMNKCIKCKIEHCEACFSHNFCTKCKEGLYLHKGRCYPACPEGSSAANGTMECSSPAQCEMSEWSPWGPCSKKQQLCGFRRGSEERTRRVLHAPVGDHAACSDTKETRRCTVRRVPCPEGQKRRKGGQGRRENANRNLARKESKEAGAGSRRRKGQQQQQQQGTVGPLTSAGPA",reconstitution of iUB organoids from tip cell colonies,iUB organoids could be reconstituted from tip cell colonies derived from any iPS cell lines
